# Target: IMCC25003 KatG (bifunctional catalase-peroxidase of strain IMCC25003) ('Ca. Planktophila rubra' IMCC25003 (acI-A1 tribe, freshwater Actinobacteria))
# Assay: SEC
substance,measurement,value
IMCC25003 KatG (bifunctional catalase-peroxidase of strain IMCC25003) (enzyme),stoichiometry N,2

# Source: doi:10.1101/343640
